The values below are quoted from earlier work in patent publication US9550786B2, “4-fluoropiperidine orexin receptor antagonists” (Merck Sharp & Dohme Corp., priority 2013, dated 2017).

The target in data set [1] is T1, OX1R (Homo sapiens, UniProt O43613).
T1 sequence (O43613 1-425): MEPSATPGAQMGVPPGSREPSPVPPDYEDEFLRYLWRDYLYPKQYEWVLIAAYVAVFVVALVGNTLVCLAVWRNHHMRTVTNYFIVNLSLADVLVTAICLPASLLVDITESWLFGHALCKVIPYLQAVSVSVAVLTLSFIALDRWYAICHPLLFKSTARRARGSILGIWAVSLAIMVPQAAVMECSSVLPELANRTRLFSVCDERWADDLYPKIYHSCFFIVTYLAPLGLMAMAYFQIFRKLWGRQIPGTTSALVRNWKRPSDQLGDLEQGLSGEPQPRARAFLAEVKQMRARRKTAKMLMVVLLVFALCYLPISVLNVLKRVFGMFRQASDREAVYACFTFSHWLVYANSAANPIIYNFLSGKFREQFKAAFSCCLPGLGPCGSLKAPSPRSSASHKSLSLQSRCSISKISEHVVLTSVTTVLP

The target of data set [2] is T2, OX2R (Homo sapiens, UniProt O43614).
T2 sequence (O43614 1-444): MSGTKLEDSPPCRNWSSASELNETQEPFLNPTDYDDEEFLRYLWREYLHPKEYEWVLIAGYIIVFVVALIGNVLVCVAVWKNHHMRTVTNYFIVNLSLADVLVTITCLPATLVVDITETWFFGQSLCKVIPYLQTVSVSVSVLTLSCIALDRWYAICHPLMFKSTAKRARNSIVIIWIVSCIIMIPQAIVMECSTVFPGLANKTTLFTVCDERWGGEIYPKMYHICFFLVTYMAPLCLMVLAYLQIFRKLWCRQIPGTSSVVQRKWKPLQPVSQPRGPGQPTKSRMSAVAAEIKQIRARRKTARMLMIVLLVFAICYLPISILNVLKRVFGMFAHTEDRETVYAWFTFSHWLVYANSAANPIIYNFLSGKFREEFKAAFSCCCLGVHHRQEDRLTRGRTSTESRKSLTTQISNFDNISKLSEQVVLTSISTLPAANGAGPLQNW

Ends that are not written are not given here.

Consider “orexin A (QPLPDCCRQKTCSCRLYELLHGAGNHAAGILTL; not fully specified (residue 1, C-terminus, bridges); cysteine pairing not given here; UniProt O43612 34-66, looked up) [OX-A]”, for which the “binding affinity toward OX1R” value in data set [1] is reported as 20 nM.
On to orexin B [OX-B], for which the “binding affinity toward OX2R” value in data set [2] is 36 nM. In data set [1], the “binding affinity toward OX1R” value is given as 420 nM.
